{"source": "paper PMC7472333", "biological_target": "WT capsid protein (RRV CP) (Ross River virus, UniProt P08491 1-270)", "sequence (P08491 1-270)": "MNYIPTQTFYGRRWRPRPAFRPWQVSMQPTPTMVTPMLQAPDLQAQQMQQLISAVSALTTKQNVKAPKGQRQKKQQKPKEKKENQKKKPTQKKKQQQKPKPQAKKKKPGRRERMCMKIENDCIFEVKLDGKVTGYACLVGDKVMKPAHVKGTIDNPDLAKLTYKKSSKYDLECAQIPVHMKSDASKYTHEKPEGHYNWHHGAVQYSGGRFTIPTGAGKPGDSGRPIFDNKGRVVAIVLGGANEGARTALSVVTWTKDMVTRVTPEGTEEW", "experiment": "EMSA (native agarose gel shift, co-migration of protein and DNA); 3 uM CP, 3 uM DNA, 150 mM NaCl; CLP assembly", "conditions": "protein: recombinant; tags: 6xHis (N-terminal)", "data": [{"binder": "GTTGACGTCACAGATGAGATATAAAGCATAAGGGACATGTTCAAACGG (ssDNA)", "note": "[48-mer linear ssDNA oligomer (DNA cargo)]", "values": [{"measurement": "binding result", "value": "binds"}]}]}
